Molecular target: human APP London (V717F), P05067

B1: human BACE (protein)
chain: ETDEEPEEPGRRGSFVEMVDNLRGKSGQGYYVEMTVGSPPQTLNILVDTGSSNFAVGAAPHPFLHRYYQRQLSSTYRDLRKGVYEPYTQGKWEGELGTDLVSIPHGPNVTVRANIAAITESDKFFINGSNWEGILGLAYAEIARPDDSLEPFFDSLVKQTHVPNLFSLQLCGAGFPLNQSEVLASVGGSMIIGGIDHSLYTGSLWYTPIRREWYYEVIIVRVEINGQDLKMDCKEYNYDKSIVDSGTTNLRLPKKVFEAAVKSIKAASSTEKFPDGFWLGEQLVCWQAGTTPWNIFPVISLYLMGEVTNQSFRITILPQQYLRPVEDVATSQDDCYKFAISQSSTGTVMGAVIMEGFYVVFDRARKRIGFAVSACHVHDEFRTAAVEGPFVTLDMEDCGYNIPQTDESTLMTIAYVMAAICALFMLPLCLMVCQWRCLRCLRQQHDDFADDISLLK
- 12 kD beta-secretase fragment of APP on Western blot of brain homogenate: the 12 kD beta-secretase fragment of APP is strongly increased due to expression of transgenic beta-secretase
- sAPP alpha and sAPP beta fragments in supernatants of organotypic cerebellar slice cultures (ELISA): the over-expression of beta-secretase in APP London single transgenic mice induces a preferential cleavage of APPV717F at the beta cut as demonstrated by the lack of sAPPalpha fragment detection and the increase of sAPPbeta

From patent US20030167486
